Laboratory results as given in PMC4338613.

Assays:
Assay in all cases: co-IP
[1] = biological target: LAP-tagged FUS/TLS P525L (human) (UniProt P35637)
[2] = biological target: LAP-tagged FUS/TLS R495X (human) (UniProt P35637)
[3] = biological target: LAP-tagged FUS/TLS R521G (human) (UniProt P35637)

Measured: fold reduction of association against wild-type FUS/TLS

Sm-B/D (components of Sm core)
5 fold: [1] | [2] | [3]
